Assay [1] deals with Pyrene-labelled F-actin (rabbit skeletal muscle actin) (rabbit, UniProt P68135 1-377, pyrene label). The assay is described as follows: other fluorescence titration; stopped-flow, pyrene-actin fluorescence; k+A from the slope of observed rate constants against actin concentration; k-A by chasing pyrene-actin from the complex with a large excess of unlabelled F-actin; KA calculated as k-A/k+A; 25 mM MOPS, 100 mM KCl, 5 mM MgCl2, 1 mM DTT, pH 7.0, 20 °C. Particulars: both partners purified.

The target of assay [2] is F-actin (rabbit skeletal muscle actin) (rabbit, UniProt P68135 1-377). The assay is described as follows: cell-based or functional assay.

B1: Dd myosin-2 M765-2R wild type (Dd myosin-2 motor domain fused to two Dd α-actinin repeats) (other)
chain: MNPIHDRTSDYHKYLKVKQGDSDLFKLTVSDKRYIWYNPDPKERDSYECGEIVSETSDSFTFKTVDGQDRQVKKDDANQRNPIKFDGVEDMSELSYLNEPAVFHNLRVRYNQDLIYTYSGLFLVAVNPFKRIPIYTQEMVDIFKGRRRNEVAPHIFAISDVAYRSMLDDRQNQSLLITGESGAGKTENTKKVIQYLASVAGRNQANGSGVLEQQILQANPILEAFGNAKTTRNNNSSRFGKFIEIQFNSAGFISGASIQSYLLEKSRVVFQSETERNYHIFYQLLAGATAEEKKALHLAGPESFNYLNQSGCVDIKGVSDSEEFKITRQAMDIVGFSQEEQMSIFKIIAGILHLGNIKFEKGAGEGAVLKDKTALNAASTVFGVNPSVLEKALMEPRILAGRDLVAQHLNVEKSSSSRDALVKALYGRLFLWLVKKINNVLCQERKAYFIGVLDISGFEIFKVNSFEQLCINYTNEKLQQFFNHHMFKLEQEEYLKEKINWTFIDFGLDSQATIDLIDGRQPPGILALLDEQSVFPNATDNTLITKLHSHFSKKNAKYEEPRFSKTEFGVTHYAGQVMYEIQDWLEKNKDPLQQDLELCFKDSSDNVVTKLFNDPNIASRAKKGANFITVAAQYKEQLASLMATLETTNPHFVRCIIPNNKQLPAKLEDKVVLDQLRCNGVLEGIRITRKGFPNRIIYADFVKRYYLLAPNVPRDAEDSQKATDAVLKHLNIDPEQYRFGITKIFFRAGQLARIEEAREQRISEILEQTKSDYLKRANELVQWINDKQASLESRDFGDSIESVQSFMNAHKEYKKTEKPPKGQEVSELEAIYNSLQTKLRLIKREPFVAPAGLTPNEIDSTWSALEKAEQEHAEALRIELKRQKKIAVLLQKYNRILKKLENWATTKSVYLGSNETGDSITAVQAKLKNLEAFDGECQSLEGQSNSDLLSILAQLTELNYNGVPELTERKDTFFAQQWTGVKSSAETYKNTLLAELERLQKIEDSLV
notes: Dictyostelium discoideum myosin-2 heavy chain (mhcA gene), first 765 residues (motor domain); Dictyostelium discoideum α-actinin, codon 264 to 505 (two α-actinin repeats, artificial lever arm); Expression vector based on pDXA-3H; also called WT; M765-2R WT; source: Dictyostelium discoideum AX3-Orf+ cells, purified (Ni-NTA)
For the molecule B1, in assay [1], the Kd (in general, the free concentration of one partner at which half of the binding sites on the other are occupied at equilibrium, for simple one-to-one binding) is 3.6 nM; the koff (usually a measure of how fast the partners let go of each other) is 0.0049 s⁻¹; the kon – broadly, a measure of how fast the partners come together – was 1.37e+06 M⁻¹ s⁻¹. In addition, in assay [2], the “k cat/K app, calculated from k cat and K app of the actin-activated steady-state ATPase” value (“k cat/K app, calculated” below) is 30000 M⁻¹ s⁻¹.

B2: Dd myosin-2 M765-2R K265E (other)
chain: MNPIHDRTSDYHKYLKVKQGDSDLFKLTVSDKRYIWYNPDPKERDSYECGEIVSETSDSFTFKTVDGQDRQVKKDDANQRNPIKFDGVEDMSELSYLNEPAVFHNLRVRYNQDLIYTYSGLFLVAVNPFKRIPIYTQEMVDIFKGRRRNEVAPHIFAISDVAYRSMLDDRQNQSLLITGESGAGKTENTKKVIQYLASVAGRNQANGSGVLEQQILQANPILEAFGNAKTTRNNNSSRFGKFIEIQFNSAGFISGASIQSYLLEESRVVFQSETERNYHIFYQLLAGATAEEKKALHLAGPESFNYLNQSGCVDIKGVSDSEEFKITRQAMDIVGFSQEEQMSIFKIIAGILHLGNIKFEKGAGEGAVLKDKTALNAASTVFGVNPSVLEKALMEPRILAGRDLVAQHLNVEKSSSSRDALVKALYGRLFLWLVKKINNVLCQERKAYFIGVLDISGFEIFKVNSFEQLCINYTNEKLQQFFNHHMFKLEQEEYLKEKINWTFIDFGLDSQATIDLIDGRQPPGILALLDEQSVFPNATDNTLITKLHSHFSKKNAKYEEPRFSKTEFGVTHYAGQVMYEIQDWLEKNKDPLQQDLELCFKDSSDNVVTKLFNDPNIASRAKKGANFITVAAQYKEQLASLMATLETTNPHFVRCIIPNNKQLPAKLEDKVVLDQLRCNGVLEGIRITRKGFPNRIIYADFVKRYYLLAPNVPRDAEDSQKATDAVLKHLNIDPEQYRFGITKIFFRAGQLARIEEAREQRISEILEQTKSDYLKRANELVQWINDKQASLESRDFGDSIESVQSFMNAHKEYKKTEKPPKGQEVSELEAIYNSLQTKLRLIKREPFVAPAGLTPNEIDSTWSALEKAEQEHAEALRIELKRQKKIAVLLQKYNRILKKLENWATTKSVYLGSNETGDSITAVQAKLKNLEAFDGECQSLEGQSNSDLLSILAQLTELNYNGVPELTERKDTFFAQQWTGVKSSAETYKNTLLAELERLQKIEDSLV
notes: Dictyostelium discoideum myosin-2 heavy chain (mhcA gene), first 765 residues (motor domain), with K265E; Dictyostelium discoideum α-actinin, codon 264 to 505 (two α-actinin repeats, artificial lever arm); Point mutant of the fusion construct m1; source: Dictyostelium discoideum AX3-Orf+ cells, purified (Ni-NTA)
Consider B2, for which, in assay [1], the Kd is 10.1 nM, the koff was 0.0113 s⁻¹ and the kon was 1.11e+06 M⁻¹ s⁻¹. Moreover, the “k cat/K app, calculated” value in assay [2] was 15000 M⁻¹ s⁻¹.

B3: Dd myosin-2 M765-2R K265A (other)
chain: MNPIHDRTSDYHKYLKVKQGDSDLFKLTVSDKRYIWYNPDPKERDSYECGEIVSETSDSFTFKTVDGQDRQVKKDDANQRNPIKFDGVEDMSELSYLNEPAVFHNLRVRYNQDLIYTYSGLFLVAVNPFKRIPIYTQEMVDIFKGRRRNEVAPHIFAISDVAYRSMLDDRQNQSLLITGESGAGKTENTKKVIQYLASVAGRNQANGSGVLEQQILQANPILEAFGNAKTTRNNNSSRFGKFIEIQFNSAGFISGASIQSYLLEASRVVFQSETERNYHIFYQLLAGATAEEKKALHLAGPESFNYLNQSGCVDIKGVSDSEEFKITRQAMDIVGFSQEEQMSIFKIIAGILHLGNIKFEKGAGEGAVLKDKTALNAASTVFGVNPSVLEKALMEPRILAGRDLVAQHLNVEKSSSSRDALVKALYGRLFLWLVKKINNVLCQERKAYFIGVLDISGFEIFKVNSFEQLCINYTNEKLQQFFNHHMFKLEQEEYLKEKINWTFIDFGLDSQATIDLIDGRQPPGILALLDEQSVFPNATDNTLITKLHSHFSKKNAKYEEPRFSKTEFGVTHYAGQVMYEIQDWLEKNKDPLQQDLELCFKDSSDNVVTKLFNDPNIASRAKKGANFITVAAQYKEQLASLMATLETTNPHFVRCIIPNNKQLPAKLEDKVVLDQLRCNGVLEGIRITRKGFPNRIIYADFVKRYYLLAPNVPRDAEDSQKATDAVLKHLNIDPEQYRFGITKIFFRAGQLARIEEAREQRISEILEQTKSDYLKRANELVQWINDKQASLESRDFGDSIESVQSFMNAHKEYKKTEKPPKGQEVSELEAIYNSLQTKLRLIKREPFVAPAGLTPNEIDSTWSALEKAEQEHAEALRIELKRQKKIAVLLQKYNRILKKLENWATTKSVYLGSNETGDSITAVQAKLKNLEAFDGECQSLEGQSNSDLLSILAQLTELNYNGVPELTERKDTFFAQQWTGVKSSAETYKNTLLAELERLQKIEDSLV
notes: Dictyostelium discoideum myosin-2 heavy chain (mhcA gene), first 765 residues (motor domain), with K265A; Dictyostelium discoideum α-actinin, codon 264 to 505 (two α-actinin repeats, artificial lever arm); Point mutant of the fusion construct m1; source: Dictyostelium discoideum AX3-Orf+ cells, purified (Ni-NTA)
Turning to B3, in assay [1], the Kd is 7.5 nM, the off-rate (koff) was 0.0104 s⁻¹ and the kon is 1.38e+06 M⁻¹ s⁻¹. Also, in assay [2], the “k cat/K app, calculated” value was 20000 M⁻¹ s⁻¹.

B4: Dd myosin-2 M765-2R K265Q (other)
chain: MNPIHDRTSDYHKYLKVKQGDSDLFKLTVSDKRYIWYNPDPKERDSYECGEIVSETSDSFTFKTVDGQDRQVKKDDANQRNPIKFDGVEDMSELSYLNEPAVFHNLRVRYNQDLIYTYSGLFLVAVNPFKRIPIYTQEMVDIFKGRRRNEVAPHIFAISDVAYRSMLDDRQNQSLLITGESGAGKTENTKKVIQYLASVAGRNQANGSGVLEQQILQANPILEAFGNAKTTRNNNSSRFGKFIEIQFNSAGFISGASIQSYLLEQSRVVFQSETERNYHIFYQLLAGATAEEKKALHLAGPESFNYLNQSGCVDIKGVSDSEEFKITRQAMDIVGFSQEEQMSIFKIIAGILHLGNIKFEKGAGEGAVLKDKTALNAASTVFGVNPSVLEKALMEPRILAGRDLVAQHLNVEKSSSSRDALVKALYGRLFLWLVKKINNVLCQERKAYFIGVLDISGFEIFKVNSFEQLCINYTNEKLQQFFNHHMFKLEQEEYLKEKINWTFIDFGLDSQATIDLIDGRQPPGILALLDEQSVFPNATDNTLITKLHSHFSKKNAKYEEPRFSKTEFGVTHYAGQVMYEIQDWLEKNKDPLQQDLELCFKDSSDNVVTKLFNDPNIASRAKKGANFITVAAQYKEQLASLMATLETTNPHFVRCIIPNNKQLPAKLEDKVVLDQLRCNGVLEGIRITRKGFPNRIIYADFVKRYYLLAPNVPRDAEDSQKATDAVLKHLNIDPEQYRFGITKIFFRAGQLARIEEAREQRISEILEQTKSDYLKRANELVQWINDKQASLESRDFGDSIESVQSFMNAHKEYKKTEKPPKGQEVSELEAIYNSLQTKLRLIKREPFVAPAGLTPNEIDSTWSALEKAEQEHAEALRIELKRQKKIAVLLQKYNRILKKLENWATTKSVYLGSNETGDSITAVQAKLKNLEAFDGECQSLEGQSNSDLLSILAQLTELNYNGVPELTERKDTFFAQQWTGVKSSAETYKNTLLAELERLQKIEDSLV
notes: Dictyostelium discoideum myosin-2 heavy chain (mhcA gene), first 765 residues (motor domain), with K265Q; Dictyostelium discoideum α-actinin, codon 264 to 505 (two α-actinin repeats, artificial lever arm); Point mutant of the fusion construct m1; source: Dictyostelium discoideum AX3-Orf+ cells, purified (Ni-NTA)
Consider B4, for which, in assay [1], the Kd is 7.6 nM, the koff is 0.0078 s⁻¹ and the kon is 1.02e+06 M⁻¹ s⁻¹. The “k cat/K app, calculated” value in assay [2] is 19000 M⁻¹ s⁻¹.

These data come from PMC5550493, “The Conserved Lysine-265 Allosterically Modulates Nucleotide- and Actin-binding Site Coupling in Myosin-2” (Scientific Reports, 2017).
